Our source for the KD values is paper PMC5233613.

In test [1] the target is LC3B 1-125 (UniProt Q9GZQ8). Nature of the test: ITC. (In general: In ITC the heat of successive injections is recorded.)
Test [2] concerns the target LC3B 1-125 (UniProt Q9GZQ8). Nature of the test: ITC. To be noted: reference: unphosphorylated peptide; sites S13.
The mark [3] stands for this setting: reference: wild-type LC3B, sites S17.

Entries after “also recorded” stand apart in the source; their conditions may differ.

With “FUNDC1 10-25 (from UniProt Q8IVP5) LC3B K49A”, in the test with LC3B 1-125 [1] (setting [3]), the KD entry was “weaker; reference 0.59 ± 0.06”.

With “FUNDC1 10-25 (from UniProt Q8IVP5) LC3B K49R”, the KD result with LC3B 1-125 [1] (setting [3]) is listed as “stronger; reference 0.59 ± 0.06”.

As to “FUNDC1 10-25 (from UniProt Q8IVP5) pS17 peptide”, the KD result with LC3B 1-125 [1] (reference: unphosphorylated peptide, sites S17) was “stronger; reference 1.78 ± 0.16”.

In the case of “FUNDC1 10-25 (from UniProt Q8IVP5) pY18 peptide”, the KD entry with LC3B 1-125 [1] (reference: unphosphorylated peptide, sites Y18) was “weaker; reference 1.78 ± 0.16”.

As to “FUNDC1 10-25 (from UniProt Q8IVP5) LC3B K49E”, the KD result with LC3B 1-125 [1] (setting [3]) is on record as “weaker; reference 0.59 ± 0.06”.

Take “FUNDC1 10-25 (from UniProt Q8IVP5) pS13 peptide”: the KD entry with LC3B 1-125 [1] (reference: unphosphorylated peptide, sites S13) is “weaker; reference 1.78 ± 0.16”; with LC3B 1-125 [2] it was “weaker; reference 11.44 ± 1.14; also recorded: weaker; reference 5.62 ± 0.25”.
